Test results: the supplement of paper PMC10065799, “High-throughput profiling of sequence recognition by tyrosine kinases and SH2 domains using bacterial peptide display” (eLife, 2023)

What was measured:
[1] = test system: AncSZ; assay: phosphorylation enrichment, bacterial display (enrichment ratio); higher = better substrate or ligand; peptides without Tyr show the background
[2] = biological target: EPHB1 (UniProt P54762); assay: as above
[3] = biological target: EPHB2 (UniProt P29323); assay: as above
[4] = biological target: FGFR1 (UniProt P11362); assay: as above
[5] = biological target: FGFR3 (UniProt P22607); assay: as above
[6] = test system: Fer (mouse); assay: as above
[7] = biological target: Fes (UniProt P07332); assay: as above
[8] = biological target: Fyn (UniProt P06241); assay: as above
[9] = biological target: Hck (UniProt P08631); assay: as above
[10] = biological target: Jak2 (UniProt O60674); assay: as above
[11] = biological target: MERTK (UniProt Q12866); assay: as above
[12] = test system: c-Abl (mouse); assay: as above
[13] = test system: c-Src; assay: as above
[14] = biological target: Grb2 SH2 (UniProt P62993); assay: SH2 binding enrichment of the phosphorylated peptide, bacterial display (enrichment ratio); higher = better substrate or ligand; peptides without Tyr show the background
[15] = biological target: SHP2-C SH2; assay: as above
[16] = biological target: c-Src SH2; assay: as above
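Wherever SH2 binding enrichment of the phosphorylated peptide, bacterial display is given: peptide library displayed on the E. coli surface as eCPX fusions, selected cells deep-sequenced, score is each peptide's frequency after selection divided by its frequency in the input.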
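Wherever phosphorylation enrichment, bacterial display is given: 11-residue human phosphosite peptides and single-mutation variants displayed on the E. coli surface, counted by deep sequencing, each peptide's frequency after selection divided by its frequency in the unselected input library; frequency after pTyr selection over input frequency; kinase dosed for 20-30% of maximal phosphorylation in three min.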

Sequence of EPHB1 (P54762 whole entry, looked up): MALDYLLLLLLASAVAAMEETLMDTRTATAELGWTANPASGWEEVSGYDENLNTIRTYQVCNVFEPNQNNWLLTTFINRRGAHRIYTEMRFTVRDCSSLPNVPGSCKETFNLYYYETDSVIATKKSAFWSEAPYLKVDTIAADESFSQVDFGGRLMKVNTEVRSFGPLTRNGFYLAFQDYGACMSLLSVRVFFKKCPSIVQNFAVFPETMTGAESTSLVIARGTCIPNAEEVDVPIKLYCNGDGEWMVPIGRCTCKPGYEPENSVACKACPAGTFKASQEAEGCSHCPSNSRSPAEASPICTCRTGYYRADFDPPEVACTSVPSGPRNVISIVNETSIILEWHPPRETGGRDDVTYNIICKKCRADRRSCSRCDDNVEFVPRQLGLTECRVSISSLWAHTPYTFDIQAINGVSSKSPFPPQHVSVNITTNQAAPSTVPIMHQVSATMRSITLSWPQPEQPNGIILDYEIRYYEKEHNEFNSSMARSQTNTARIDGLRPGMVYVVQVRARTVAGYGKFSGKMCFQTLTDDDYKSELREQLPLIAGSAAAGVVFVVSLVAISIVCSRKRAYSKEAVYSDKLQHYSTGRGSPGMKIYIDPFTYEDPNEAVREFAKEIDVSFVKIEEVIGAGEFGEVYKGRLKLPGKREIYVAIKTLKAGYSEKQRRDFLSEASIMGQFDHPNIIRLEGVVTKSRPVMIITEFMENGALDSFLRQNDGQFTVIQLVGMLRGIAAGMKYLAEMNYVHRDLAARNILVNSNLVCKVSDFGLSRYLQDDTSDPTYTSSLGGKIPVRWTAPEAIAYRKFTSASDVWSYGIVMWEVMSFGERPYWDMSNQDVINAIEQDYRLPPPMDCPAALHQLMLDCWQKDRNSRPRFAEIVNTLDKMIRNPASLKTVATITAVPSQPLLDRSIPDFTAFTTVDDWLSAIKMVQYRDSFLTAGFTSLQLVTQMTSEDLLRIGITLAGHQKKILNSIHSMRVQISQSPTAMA
Sequence of Fyn (P06241 whole entry, looked up): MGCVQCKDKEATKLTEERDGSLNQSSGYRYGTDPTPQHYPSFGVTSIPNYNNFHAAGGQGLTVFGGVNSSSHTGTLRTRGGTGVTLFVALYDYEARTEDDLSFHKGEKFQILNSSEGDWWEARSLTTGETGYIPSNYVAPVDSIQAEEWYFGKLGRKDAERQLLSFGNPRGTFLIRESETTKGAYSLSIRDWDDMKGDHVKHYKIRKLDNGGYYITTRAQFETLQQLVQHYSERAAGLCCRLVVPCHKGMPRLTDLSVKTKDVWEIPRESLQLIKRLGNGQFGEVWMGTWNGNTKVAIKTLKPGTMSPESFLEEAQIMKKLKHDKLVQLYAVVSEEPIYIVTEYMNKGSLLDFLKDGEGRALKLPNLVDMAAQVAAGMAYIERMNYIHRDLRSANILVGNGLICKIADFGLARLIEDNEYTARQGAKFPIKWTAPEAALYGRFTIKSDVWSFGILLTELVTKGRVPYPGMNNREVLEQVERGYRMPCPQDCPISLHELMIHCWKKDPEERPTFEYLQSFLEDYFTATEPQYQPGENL
Sequence of FGFR3 (P22607 whole entry, looked up): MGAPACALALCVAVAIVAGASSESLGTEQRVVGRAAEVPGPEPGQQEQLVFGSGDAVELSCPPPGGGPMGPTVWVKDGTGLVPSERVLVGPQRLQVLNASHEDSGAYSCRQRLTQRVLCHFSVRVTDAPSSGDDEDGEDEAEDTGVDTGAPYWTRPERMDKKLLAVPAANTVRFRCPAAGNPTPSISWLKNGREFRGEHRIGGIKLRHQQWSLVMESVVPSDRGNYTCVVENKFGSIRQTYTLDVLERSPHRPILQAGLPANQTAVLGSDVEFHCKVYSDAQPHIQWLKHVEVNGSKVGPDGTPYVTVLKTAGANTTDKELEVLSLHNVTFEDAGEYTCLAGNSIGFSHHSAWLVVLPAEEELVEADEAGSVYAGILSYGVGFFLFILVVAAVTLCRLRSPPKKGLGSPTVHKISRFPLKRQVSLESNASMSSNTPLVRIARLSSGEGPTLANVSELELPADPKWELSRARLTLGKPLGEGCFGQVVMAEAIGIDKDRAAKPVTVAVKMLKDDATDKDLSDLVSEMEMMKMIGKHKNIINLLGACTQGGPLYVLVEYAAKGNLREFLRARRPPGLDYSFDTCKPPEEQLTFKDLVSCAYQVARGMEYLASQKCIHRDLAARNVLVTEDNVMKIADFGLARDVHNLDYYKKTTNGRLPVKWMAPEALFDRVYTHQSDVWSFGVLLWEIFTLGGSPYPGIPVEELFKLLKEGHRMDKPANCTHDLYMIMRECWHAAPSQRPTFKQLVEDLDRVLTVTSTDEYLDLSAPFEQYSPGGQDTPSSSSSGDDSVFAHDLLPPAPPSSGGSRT
Sequence of Jak2 (O60674 whole entry, looked up): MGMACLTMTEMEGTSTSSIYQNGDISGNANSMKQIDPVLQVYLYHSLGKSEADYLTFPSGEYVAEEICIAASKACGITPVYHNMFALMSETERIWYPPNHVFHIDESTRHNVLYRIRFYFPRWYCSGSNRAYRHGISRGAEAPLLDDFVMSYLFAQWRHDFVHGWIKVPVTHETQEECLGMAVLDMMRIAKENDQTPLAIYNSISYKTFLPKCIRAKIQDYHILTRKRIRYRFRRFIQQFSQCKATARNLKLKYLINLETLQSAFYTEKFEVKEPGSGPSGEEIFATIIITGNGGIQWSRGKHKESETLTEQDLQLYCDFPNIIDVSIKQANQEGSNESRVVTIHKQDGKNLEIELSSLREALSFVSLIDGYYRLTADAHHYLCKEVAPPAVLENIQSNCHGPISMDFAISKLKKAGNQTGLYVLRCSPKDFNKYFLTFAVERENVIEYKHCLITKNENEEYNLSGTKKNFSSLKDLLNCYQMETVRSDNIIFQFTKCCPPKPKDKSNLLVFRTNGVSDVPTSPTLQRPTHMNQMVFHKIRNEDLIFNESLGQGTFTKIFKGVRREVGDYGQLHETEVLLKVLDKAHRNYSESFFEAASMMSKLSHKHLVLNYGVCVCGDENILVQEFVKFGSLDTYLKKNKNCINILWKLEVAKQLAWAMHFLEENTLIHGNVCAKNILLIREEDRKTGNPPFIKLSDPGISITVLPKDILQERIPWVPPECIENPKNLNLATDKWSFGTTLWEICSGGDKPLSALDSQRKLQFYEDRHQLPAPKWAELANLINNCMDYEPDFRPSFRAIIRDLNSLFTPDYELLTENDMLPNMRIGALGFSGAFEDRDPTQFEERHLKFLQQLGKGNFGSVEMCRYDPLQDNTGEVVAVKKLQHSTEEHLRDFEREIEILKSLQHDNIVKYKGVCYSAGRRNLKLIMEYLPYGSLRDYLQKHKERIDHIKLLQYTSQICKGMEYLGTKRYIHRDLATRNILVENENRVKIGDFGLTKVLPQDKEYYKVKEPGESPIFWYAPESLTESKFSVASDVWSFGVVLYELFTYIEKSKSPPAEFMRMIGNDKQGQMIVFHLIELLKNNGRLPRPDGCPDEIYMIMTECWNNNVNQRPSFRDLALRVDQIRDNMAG
Sequence of EPHB2 (P29323 whole entry, looked up): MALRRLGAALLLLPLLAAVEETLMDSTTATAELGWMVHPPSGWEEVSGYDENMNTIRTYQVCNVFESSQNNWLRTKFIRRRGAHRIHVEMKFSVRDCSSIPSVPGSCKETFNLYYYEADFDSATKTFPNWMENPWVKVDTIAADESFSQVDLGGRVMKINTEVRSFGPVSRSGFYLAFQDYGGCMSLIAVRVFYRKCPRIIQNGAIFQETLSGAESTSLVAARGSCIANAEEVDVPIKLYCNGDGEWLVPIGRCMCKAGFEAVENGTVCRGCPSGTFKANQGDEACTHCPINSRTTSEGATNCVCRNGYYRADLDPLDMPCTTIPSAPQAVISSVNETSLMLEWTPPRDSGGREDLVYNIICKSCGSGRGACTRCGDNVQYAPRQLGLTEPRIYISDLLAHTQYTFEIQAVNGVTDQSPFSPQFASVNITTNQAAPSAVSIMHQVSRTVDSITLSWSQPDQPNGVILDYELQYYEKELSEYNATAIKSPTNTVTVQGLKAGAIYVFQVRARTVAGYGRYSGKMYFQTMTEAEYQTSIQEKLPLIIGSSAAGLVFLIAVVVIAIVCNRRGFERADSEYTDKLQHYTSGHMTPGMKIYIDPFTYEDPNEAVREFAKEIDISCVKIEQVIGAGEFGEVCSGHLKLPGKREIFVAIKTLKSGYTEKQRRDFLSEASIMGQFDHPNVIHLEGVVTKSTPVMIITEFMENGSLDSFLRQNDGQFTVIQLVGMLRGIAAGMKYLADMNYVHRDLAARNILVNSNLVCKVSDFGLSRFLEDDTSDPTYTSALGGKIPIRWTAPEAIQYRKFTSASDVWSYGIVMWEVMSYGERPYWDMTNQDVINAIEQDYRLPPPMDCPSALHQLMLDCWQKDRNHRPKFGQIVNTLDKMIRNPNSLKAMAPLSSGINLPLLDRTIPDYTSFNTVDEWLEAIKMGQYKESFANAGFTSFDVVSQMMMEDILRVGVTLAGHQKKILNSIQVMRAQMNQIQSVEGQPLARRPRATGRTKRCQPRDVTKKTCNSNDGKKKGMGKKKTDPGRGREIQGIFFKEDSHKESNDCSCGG
Sequence of Hck (P08631 whole entry, looked up): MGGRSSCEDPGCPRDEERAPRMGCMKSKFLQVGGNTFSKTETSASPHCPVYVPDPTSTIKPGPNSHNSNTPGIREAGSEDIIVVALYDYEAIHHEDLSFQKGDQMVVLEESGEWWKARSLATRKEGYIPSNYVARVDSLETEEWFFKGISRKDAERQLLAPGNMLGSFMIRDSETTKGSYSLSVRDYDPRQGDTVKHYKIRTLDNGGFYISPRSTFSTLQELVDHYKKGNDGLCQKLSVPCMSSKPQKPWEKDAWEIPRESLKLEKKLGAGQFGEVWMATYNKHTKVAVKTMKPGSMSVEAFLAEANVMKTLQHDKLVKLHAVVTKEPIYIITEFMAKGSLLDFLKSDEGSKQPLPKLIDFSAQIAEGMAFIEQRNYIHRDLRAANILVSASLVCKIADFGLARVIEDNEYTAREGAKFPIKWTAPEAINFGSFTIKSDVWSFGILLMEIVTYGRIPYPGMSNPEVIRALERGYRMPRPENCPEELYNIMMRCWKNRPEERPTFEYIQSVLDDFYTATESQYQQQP

| SH2 binding enrichment [14] | SH2 binding enrichment [15] | SH2 binding enrichment [16] | Sequence | phosphorylation enrichment [1] | phosphorylation enrichment [2] | phosphorylation enrichment [3] | phosphorylation enrichment [4] | phosphorylation enrichment [5] | phosphorylation enrichment [6] | phosphorylation enrichment [7] | phosphorylation enrichment [8] | phosphorylation enrichment [9] | phosphorylation enrichment [10] | phosphorylation enrichment [11] | phosphorylation enrichment [12] | phosphorylation enrichment [13] |
| --- | --- | --- | --- | --- | --- | --- | --- | --- | --- | --- | --- | --- | --- | --- | --- | --- |
| 0.765 | 0.709 | 0.529 | TGDFGYRTPGF [TNS2_Y668_A670T_YF] | 0.523 | 0.48 | 0.419 | 0.438 | 0.517 | 0.399 | 0.632 | 0.457 | 0.401 | 0.526 | 0.429 | 0.706 | 0.413 |
| 1.64 | 1.64 | 1.04 | VVFIKYLPEWT [PSEN1_Y240_L235V] | 1.01 | 0.595 | 0.532 | 0.424 | 0.773 | 0.538 | 1.23 | 0.335 | 0.44 | 1.22 | 0.343 | 0.81 | 0.414 |
| 0.716 | 0.52 | 0.409 | SEHLTYLEFKS [RASGRP1_Y215] | 1.41 | 1.02 | 0.838 | 0.729 | 1.16 | 0.62 | 1.58 | 6.61 | 5.7 | 1.33 | 0.459 | 1.09 | 5.56 |
| 0.917 | 1.11 | 0.918 | VDYQPYRKHKY [TEX37_Y28] | 0.627 | 0.314 | 0.356 | 0.423 | 0.416 | 0.425 | 0.518 | 0.436 | 0.484 | 0.483 | 0.302 | 0.53 | 0.35 |
| 0.702 | 0.642 | 0.392 | RTEAQYRFIYM [PTPN11_Y511_Q506R] | 1.2 | 0.724 | 0.9 | 0.683 | 1.1 | 0.794 | 1.72 | 0.423 | 0.635 | 1.5 | 0.691 | 1.44 | 0.754 |
| 1.25 | 1.07 | 1.01 | KQLFAYKMLMA [TMC2_Y209_YF] | 0.858 | 0.562 | 0.594 | 0.548 | 0.677 | 0.445 | 0.926 | 0.475 | 0.566 | 0.773 | 0.386 | 0.711 | 0.439 |
| 0.78 | 0.732 | 0.537 | SVTCTYSSALN [TP53_Y126_P128S] | 1 | 0.601 | 0.576 | 0.483 | 0.726 | 0.534 | 1 | 0.6 | 0.689 | 0.909 | 0.458 | 0.728 | 0.64 |
| 0.91 | 0.672 | 0.666 | SLYPGYNFRYA [P2RX7_Y291] | 0.63 | 0.423 | 0.604 | 0.44 | 0.57 | 0.498 | 0.685 | 0.413 | 0.529 | 0.495 | 0.399 | 0.477 | 0.378 |
| 0.933 | 1.12 | 0.776 | PGGKIYISPLK [RB1_Y805_N803K] | 0.598 | 0.361 | 0.763 | 0.45 | 0.583 | 0.441 | 0.794 | 0.513 | 0.456 | 0.72 | 0.461 | 1.17 | 0.422 |
| 1.13 | 0.821 | 0.642 | QRRFVYFFSFL [PTEN_Y176_YF] | 1.6 | 0.563 | 0.61 | 0.573 | 0.908 | 1.91 | 1.46 | 0.656 | 0.57 | 1.15 | 0.618 | 1.12 | 0.567 |
| 0.987 | 0.762 | 0.429 | RLGNQHVNVMN [SLC3A1_Y461_Y461H] | 0.793 | 0.694 | 0.612 | 0.567 | 0.691 | 0.504 | 1.09 | 0.627 | 0.505 | 1.09 | 0.53 | 0.947 | 0.717 |
| 0.988 | 1.21 | 0.589 | SFLFRYADDSF [RAB3C_Y50] | 1.01 | 0.545 | 0.515 | 0.475 | 0.582 | 0.414 | 1.01 | 0.45 | 0.525 | 0.835 | 0.45 | 0.582 | 0.434 |
| 0.726 | 0.74 | 0.435 | ADAGMYGVLPW [PLP1_Y207_R205G] | 0.803 | 1.76 | 6.53 | 0.549 | 0.529 | 2.39 | 0.845 | 9.65 | 9.1 | 0.637 | 6.35 | 3.07 | 6.61 |

Second part, the sequence before the results:

| Sequence | SH2 binding enrichment [14] | SH2 binding enrichment [15] | SH2 binding enrichment [16] | phosphorylation enrichment [1] | phosphorylation enrichment [2] | phosphorylation enrichment [3] | phosphorylation enrichment [4] | phosphorylation enrichment [5] | phosphorylation enrichment [6] | phosphorylation enrichment [7] | phosphorylation enrichment [8] | phosphorylation enrichment [9] | phosphorylation enrichment [10] | phosphorylation enrichment [11] | phosphorylation enrichment [12] | phosphorylation enrichment [13] |
| --- | --- | --- | --- | --- | --- | --- | --- | --- | --- | --- | --- | --- | --- | --- | --- | --- |
| DRLASYPEKVR [KRT13_Y118_L119P] | 0.845 | 0.636 | 0.511 | 0.395 | 0.323 | 0.413 | 0.403 | 0.413 | 0.329 | 0.57 | 0.35 | 0.329 | 0.403 | 0.34 | 0.41 | 0.331 |
| KVDKEYEVGVR [GHR_Y226_R229G] | 0.851 | 0.764 | 0.534 | 0.752 | 0.434 | 0.48 | 0.472 | 0.493 | 0.398 | 0.796 | 0.401 | 0.452 | 0.553 | 0.41 | 0.658 | 0.414 |
| VFGVSYDEYRY [CFTR_Y512_I507V] | 0.781 | 0.72 | 1.38 | 1.01 | 0.538 | 0.465 | 0.434 | 0.604 | 0.453 | 0.959 | 0.802 | 0.712 | 0.761 | 0.477 | 0.566 | 1.31 |
| DNACQYMLTDR [MYH7_Y164_Y162C] | 0.859 | 0.866 | 0.814 | 1.02 | 0.6 | 0.612 | 0.614 | 0.691 | 0.523 | 1 | 0.571 | 0.567 | 0.959 | 0.532 | 0.766 | 1.24 |
| IALNSCHSRNC [IFNGR1_Y397_Y397C] | 1 | 0.645 | 0.628 | 0.48 | 0.337 | 0.351 | 0.486 | 0.371 | 0.379 | 0.506 | 0.359 | 0.358 | 0.375 | 0.406 | 0.36 | 0.401 |
| SIGLGYHKDLQ [NF1_Y1169] | 0.776 | 0.639 | 0.423 | 0.528 | 0.34 | 0.629 | 0.414 | 0.486 | 0.368 | 0.536 | 0.427 | 0.424 | 0.548 | 0.381 | 0.487 | 0.458 |
| RMDGKYACSFT [FLNB_Y704_T703K_YF] | 0.935 | 0.638 | 0.566 | 1.38 | 0.882 | 0.977 | 1.1 | 1.45 | 0.701 | 1.28 | 0.756 | 0.964 | 0.929 | 0.589 | 0.902 | 0.491 |
| PARLEYCENEK [IRS1_Y46_Y47C] | 0.909 | 1.21 | 1.26 | 1.75 | 0.947 | 0.823 | 0.809 | 1.16 | 0.816 | 1.74 | 1.12 | 1.04 | 1.76 | 0.762 | 1.08 | 1.05 |
| RLQEDYDHSYY [ESD_Y258_G257D] | 0.932 | 0.741 | 1.16 | 1.78 | 0.814 | 0.811 | 0.923 | 1.03 | 0.572 | 1.55 | 0.824 | 0.781 | 1.56 | 0.754 | 0.943 | 1.06 |
| IAKNPYDPPGR | 0.765 | 0.482 | 0.543 | 0.56 | 0.363 | 0.333 | 0.405 | 0.48 | 0.37 | 0.689 | 0.344 | 0.316 | 0.635 | 0.426 | 0.455 | 0.38 |
| QDDTVYMGKVT [DCTN1_Y1244] | 1.04 | 0.974 | 0.649 | 1.96 | 0.8 | 0.918 | 0.789 | 1.17 | 2.72 | 2.4 | 0.958 | 1.24 | 1.31 | 0.714 | 1.37 | 0.917 |
| ATHSGYRLNDY [CLDN14_Y233] | 0.709 | 0.623 | 0.49 | 0.568 | 0.518 | 0.491 | 0.503 | 0.491 | 0.395 | 0.739 | 0.389 | 0.397 | 0.706 | 0.393 | 0.556 | 0.493 |
| MSRYIYSTDYY [NTRK1_Y676_D674Y] | 0.906 | 1.82 | 1.53 | 2.16 | 8.88 | 11.4 | 8.47 | 6.27 | 1.89 | 1.41 | 6.8 | 5.21 | 2.09 | 12.3 | 0.879 | 7.15 |
| VGTKQYMAPEV [ACVRL1_Y375_R374Q] | 0.832 | 0.572 | 0.485 | 0.678 | 0.466 | 0.653 | 0.458 | 0.51 | 0.42 | 0.754 | 0.432 | 0.429 | 0.738 | 0.469 | 0.674 | 0.598 |
| IKKFKYGIEEH [GJA1_Y137] | 0.644 | 0.61 | 0.502 | 0.836 | 0.42 | 0.497 | 0.4 | 0.476 | 0.382 | 0.697 | 0.374 | 0.402 | 0.582 | 0.323 | 0.498 | 0.336 |
| IIRFNYLLDVL [FGFR4_Y237_S232I_YF] | 2.13 | 2.19 | 1.13 | 1.2 | 0.688 | 0.478 | 0.809 | 0.763 | 0.47 | 1.31 | 0.513 | 0.522 | 0.89 | 0.465 | 0.996 | 0.525 |
| RRRLIYRCQVG [NR2E3_Y81] | 0.727 | 0.566 | 0.286 | 0.776 | 0.76 | 0.983 | 0.854 | 0.601 | 0.587 | 1.05 | 0.915 | 0.884 | 0.679 | 0.735 | 0.697 | 0.556 |
| VDEVLYEDSST [MTHFS_Y197] | 0.849 | 0.635 | 0.489 | 1.53 | 0.666 | 0.671 | 0.742 | 0.886 | 2.56 | 1.34 | 0.571 | 0.646 | 1.18 | 0.492 | 0.785 | 0.615 |
| EVEPRYVVLFD [ERCC4_Y577_YF] | 0.802 | 1.33 | 3.48 | 1.18 | 3.47 | 3.06 | 0.999 | 0.973 | 0.568 | 1.04 | 0.547 | 0.505 | 1.11 | 4.21 | 0.777 | 0.667 |
| LQEKSYIKGTS [LCTL_Y331] | 1.41 | 1.1 | 0.546 | 1.33 | 0.652 | 1.02 | 1.15 | 1.08 | 0.96 | 1.21 | 0.616 | 0.912 | 0.595 | 0.609 | 0.723 | 0.9 |
